# No end group written: not given here.
# Legend:
# [1] = Fluorescence quantum yield of TCPP; format: physicochemical; conditions: untethered, non-metalated TCPP
# Description: The emission spectra of the nanoplatform assembly (1×10^−5 M) in PBS in the presence of about 1×10^−8 M urokinase is depicted in FIG. 4, at 0 (A), 2 (B), 4 (C), and 6 minutes (D). […] The reason for the observed non-linear behavior can be found in the high fluorescence quantum yield of the untethered, non-metalated TCPP. We estimated Φ=0.082, which is approximately eight times higher than in the tethered state, when the large porphyrin-concentration in the sphere around the Fe/Fe3O4-nanoparticle leads to increase FRET and, consequently, radiation-less deactivation of the excited states.
# urokinase [2] = target: T1, urokinase (Homo sapiens, UniProt P00749); assay: FRET-based sensor emission spectra in the presence of urokinase; format: biochemical; conditions: assembly 1×10^−5 M in PBS, about 1×10^−8 M urokinase, 0-6 minutes
# T1 construct: purchased Innovative Research, Inc., Novi, Mich
# Description: For the FRET-Based Sensor, five Zn-TCPP porphyrins were attached to one central stealth-protected Fe/Fe3O4 nanoparticle, and then a non-metalated TCPP porphyrin was attached to the central nanoparticle, using the procedure described below.
# To prepare the stealth-protected Fe/Fe3O4-nanoparticles, 35 mg of dopamine-tetraethylene glycol ligand were dissolved in 5 ml THF. Next, 11.0 mg of Fe/Fe3O4-nanoparticles were added and sonicated at room temperature for 1 hour. […] The solid was then collected with a magnet and solvent was decanted carefully. The solid was washed with THF (3×3 ml). After drying under vacuum for 2 hours, 10.0 mg of stealth-protected nanoparticle product was obtained.
# The oligopeptide linker was then attached to the metalated porphyrin. […]
# The emission spectra of the nanoplatform assembly (1×10^−5 M) in PBS in the presence of about 1×10^−8 M urokinase is depicted in FIG. 4, at 0 (A), 2 (B), 4 (C), and 6 minutes (D). […] The reason for the observed non-linear behavior can be found in the high fluorescence quantum yield of the untethered, non-metalated TCPP. […]
# In FIG. 5, the ratios of the integrals of the fluorescence bands shown at λ1=607 nm, λ2=654 nm, and λ3=718 nm are plotted versus the mol percent of released TCPP (as measured by HPLC using an Agilent workstation (HP 1050) equipped with an optical detection system). […]
# urokinase [3] = target: T1, urokinase; assay: Fluorescence/phosphorescence assay of uPA activity with chromophore-chromophore assembly; format: biochemical; conditions: excitation of pyrene at 280 nm, 37° C., about 1×10^−8 mol urokinase, 0-15 minutes
# Description: In this example, fluorescence/phosphorescence assays were used to measure activity of uPA. A chromophore-chromophore assembly was prepared using the peptide sequence SRSRSRSRSRSGRSAGGGC (SEQ ID NO: 18) (GenScript) as a spacer between a pyrene fluorophore and a coumarin acceptor. All chemicals and solvents were purchased from Fisher/Acros (Pittsburgh, Pa.), unless otherwise noted. The assembly was prepared by dissolving 0.00010 mol of coumarin in THF at room temperature. Next, 0.00012 mol of 1-ethyl-3-(3-dimethyllaminopropyl)carbodiimide (EDC) were added as solid under argon-atmosphere and allowed to react for 5 hours. Then, the oligopeptide linkage was attached to the coumarin by adding to the reaction 0.00010 mol of the oligopeptide dissolved in 1 ml bidest. (double purified) water, followed by stirring at room temperature for 24 hours under argon atmosphere. Next, 0.0020 mol of mercaptopyrene was added as a solid to the solution, and completely dissolved within 5 minutes. The solution was continuously stirred under ambient conditions for another 24 hours. […]
# The spectral shift from the assay is depicted in FIG. 3. The changes in the emission spectra were measured using a spectrofluorometer (ISA-SPEX, Fluoromax-2; ISA, Inc., Edison, N.J.). Upon photoexcitation of the pyrene at 280 nm, FRET occurs, which causes the attached coumarin to emit most of the phosphorescence/luminescence. […]
# urokinase [4] = target: T1, urokinase; assay: UV/Vis-absorption spectroscopy measurement of uPA activity with nanoparticle-nanoparticle assembly; format: biochemical; conditions: PBS, 37° C.
# Description: In this procedure, UV/Vis-Absorption spectroscopy was used to measure the activity of uPA. All chemicals and solvents were purchased from Fisher/Acros (Pittsburgh, Pa.), unless otherwise noted. A nanoparticle-nanoparticle assembly was prepared using citrate-stabilized gold nanoparticles (Sigma-Aldrich, St. Louis, Mo.) with a 10 nm diameter and an oligopeptide with the following sequence: CGGGSGRSAGGGC (SEQ ID NO: 35) (GenScript, Piscataway, N.J.). First, 1 mg of the nanoparticles was suspended in 25 ml of tetrahydrofuran (THF) containing 1.0×10^−3 M of glycine. The microheterogeneous solution was heated under pressure (100 psi) and argon-atmosphere to 200° C. for 5 hours. The reaction was carried out using a High-Pressure Reactor (available from Parr Instruments, Moline, Ill.). Digestive ripening decreased the Au-nanoparticle diameter to 4-5 nm. The nanoparticles were then removed from the solution by ultracentrifugation at 30,000 rpm and then resuspended in THF. The procedure was repeated 10 times to remove all non-bonded glycine.
# Next, 0.1 mg of the oligopeptide was added to the Au-nanoparticles in 1.0 ml of anhydrous THF, followed by stirring for 24 hours. The oligopeptide and nanoparticles were precipitated by centrifugation at 30,000 rpm and then resuspended in THF. This procedure was repeated 10 times. The linked Au—Au nanoparticle assemblies were then dissolved in phosphate buffer (PBS; pH=7.02), precipitated by centrifugation at 20,000 rpm and resuspended again in PBS.
# The reported absorption coefficient at the maximum absorption of the plasmon is ε=7.66×10^9 M^−1 cm^−1. This absorption coefficient was used to estimate the concentration of the Au—Au nanoparticles at […].
# The Au—Au nanoparticles in PBS solution were then added to a quartz cuvette (˜3.0 mL). The solution was heated to 37° C. for 15 minutes. Next, 1×10^−8 mol of urokinase in 0.050 ml of PBS (Innovative Research, Inc., Novi, Mich.) was added to the cuvette. […]
compound,measurement,setting,value
"O=C(O)c1ccc(-c2c3nc(c(-c4ccc(C(=O)O)cc4)c4ccc([nH]4)c(-c4ccc(C(=O)O)cc4)c4nc(c(-c5ccc(C(=O)O)cc5)c5ccc2[nH]5)C=C4)C=C3)cc1 [TCPP, tetracarboxy-phenyl-porphyrin]",fluorescence quantum yield Φ,[1],0.082
"FRET-Based Sensor: five Zn-TCPP porphyrins and a non-metalated TCPP attached to one stealth-protected Fe/Fe3O4 nanoparticle via CGGGSGRSAGGGC linkers (cysteine pairing not given here; also: links Zn-TCPP porphyrins and TCPP to Fe/Fe3O4 nanoparticle, attachment points not given here)",fluorescence band at λ1=607 nm in the presence of urokinase,urokinase [2],distinct decrease
chromophore-chromophore assembly: pyrene fluorophore and coumarin acceptor linked by peptide SRSRSRSRSRSGRSAGGGC (SEQ ID NO: 18) (also: pyrene fluorophore and coumarin acceptor attached),coumarin emission (FRET) after adding urokinase,urokinase [3],decreases with time
coupled pair of gold nanoparticles: 4-5 nm gold nanoparticles linked by oligopeptide CGGGSGRSAGGGC (SEQ ID NO: 35) (cysteine pairing not given here; also: attached to gold nanoparticles),maximum of the gold plasmon absorption after urokinase cleavage,urokinase [4]; 1×10^−8 mol urokinase,517 nm
same,time for the shift of the plasmon absorption maximum,urokinase [4]; 1×10^−8 mol urokinase,≤ 180 s
same,maximum of the gold plasmon absorption before urokinase cleavage,urokinase [4]; before adding urokinase,523 nm
